Test system: PBRM1-BD4 WT
Experiment: EMSA
Conditions: 20 uM chosen from titration to approximate EC50; 150 nM DNA, protein 0-50 uM; EMSA: 10.5 mM K3PO4 pH 7 (20 °C), 10 mM KCl, 1% v/v glycerol, 0.2 mM DTT; 1 h on ice; 5% 75:1 native gel in 0.2x TBE, 4 °C

With Widom 601 DNA the K half was 20 µM.

— publication PMC11002309
